Substrate in the data set: CC(C)(COP(=O)(O)OP(=O)(O)OC[C@H]1O[C@@H](n2cnc3c(N)ncnc32)[C@H](O)[C@@H]1OP(=O)(O)O)[C@@H](O)C(=O)NCCC(=O)NCCSC(=O)c1ccccc1
The data set is described as follows: purified protein, by the assay type. The format is biochemical, Arabidopsis thaliana. The conditions noted are these: other: apparent, measured at 4 mM NADPH, pH 6.5, 28° C.

As usually defined, the Km is the substrate concentration at which the rate is half of its maximum. One may read the Vmax as the top rate of the reaction or transport when substrate is in excess. By kcat is commonly meant the maximal rate divided by the concentration of active sites. The kcat/Km is the second-order rate constant that governs catalysis at low substrate concentration.

Protocol: The reaction was initiated by adding a protein and incubated at 28° C. for 30 minutes, and the reactions were then terminated by adding 100 μL of 100% ice-cold methanol (MeOH). The BS enzyme assays were performed at an appropriate enzyme concentration so that reaction velocity was proportional to enzyme concentration and linear during the incubation time period. Km and Vmax were determined by non-linear fit to the Michaelis-Menten equation using Graphpad Prism, v8.2.0.
Triplicate assays were performed for all data points.
After centrifugation at 15,000 g for 20 minutes, 5 μL of the supernatant were subjected to high-performance liquid chromatography (HPLC) analysis using an Agilent 1260 Infinity II system (Agilent Technologies, Inc., Santa Clara, CA) equipped with an InfinityLab Poroshell 120 EC-C18 column (3.0×150 mm, 2.7 μm) maintained at 35° C. Products were separated with a 15-minute linear gradient of 10% aqueous acetonitrile solution to 100% acetonitrile and monitored at 248 nm using a diode array detector (DAD). Benzaldehyde was identified by comparing the retention time and absorption spectrum with authentic standard.
Quantitation was achieved by using standard curve generated from authentic standard and product verification was performed by GC-MS.
Recombinant BS proteins were produced in E. coli by expressing the corresponding coding regions (CDS) subcloned into an expression vector pMAL-c5X (New England BioLabs, Ipswich, MA) containing a maltose binding protein (MBP) tag using ClonExpress II One Step Cloning Kit (Vazyme Biotech Co., Piscataway, NJ).
After sequence verification, the desired plasmids were transformed into Rosetta2 (DE3) pLysS competent cells (MilliporeSigma, Burlington, MA). Single colonies were picked and cultured overnight in 2 ml LB medium containing 100 mg/L carbenicillin and 34 mg/L chloramphenicol at 37° C. Overnight cultures were then diluted 100-fold with LB medium and continued to culture at 37° C. until OD600 reached ˜0.5.
After cooling the cell culture on ice for 10 minutes, isopropyl β-D-1-thiogalactopyranoside (IPTG) was added to a final concentration of 0.1 mM and cells were incubated at 28° C. with shaking for additional 2.5 to 3 hours. After harvesting cells by centrifugation, their lysis and protein purification were performed according to the manufacturer's protocol of Amylose Resin (New England Biolabs, Ipswich, MA).

B1: Arabidopsis thaliana benzaldehyde synthase (AtBS), recombinant heterodimer AtBSα (SEQ ID NO: 5) / AtBSβ (SEQ ID NO: 8), wild type, MBP-tagged (Arabidopsis … (protein)
chain 1: MSNHQTQVLKLLEPWCELKDKVVLVTGASSGIGREICLDLAKAGCQVIAAARRVDRLNSLCSEINSFSSTGIQAAALELDVSSDAATIQKAVREAWDIFGKIDALINNAGIRGNVKSSLDLSEDEWDNVFKTNLKGPWLVSKHVCMLMRDAKRGGSVINISSIAGIRGMLPGGLAYACSKGGVDTMSRMMALELGVHKIRVNSIAPGLFKSEITQGLMQKEWLKNVTERTVPLKVQQTVDPGLTSLVRYLIHDSSQYISGNTYIVDSGATLPGVPIFSSL
chain 2: MENPAKRVLMTSNGDEVSRNIAFHLAKHGCKLVMMGNEGSLRSIVDKIRDSIEGAFPADVIALDMESDSEVAFHAAVQKAWELSGHFDAFLNSYTYQGKVQDILQVSQDEFHRITKINLTAPWFLLKAVATRMKDHGSGGSIVFMATIASGERALYPGADAYASTSAAIHQLVRASAMSLGKHKIRVNMISRGLHLDDEYTASVGRDRAQKLVKDAAPLGQWLNPDTDLYSTVIYLISDGSRFMTGTTVLVDGAQSLTRPRLKSYM
notes: full-length CDS from flower cDNA
For B1, the Km is 242.8 ± 28.2 µM, the Vmax came to 0.864 µmol/min/mg, the kcat turned out to be 2.12 ± 0.08 s⁻¹ and the kcat/Km amounted to 8700 ± 1100 M⁻¹ s⁻¹.

(Values after patent US20250034601A1, “HETERODIMERIC BENZALDEHYDE SYNTHASE, METHODS OF PRODUCING, AND USES THEREOF” (Purdue Research Foundation, priority 2021, published 2025).)
